Results published in paper PMC6083498, “F-CphI represents a new homing endonuclease family using the Endo VII catalytic motif”.

Molecular target: T1, F-CphI (cyanophage S-PM2, UniProt Q7Y4H4 1-142)
T1 sequence: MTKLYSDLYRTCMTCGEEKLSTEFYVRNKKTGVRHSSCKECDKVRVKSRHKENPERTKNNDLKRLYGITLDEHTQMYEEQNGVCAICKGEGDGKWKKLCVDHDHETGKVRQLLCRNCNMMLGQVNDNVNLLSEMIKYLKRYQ
Experiment: EMSA; no Mg2+ added; Kd value only in figure; EMSA: 10 mM Tris-HCl pH 8.0, 2% glycerol, 2 ug/ml poly-dIdC, 2 ug/ml BSA, 0.2 mM DTT, on ice 15 min, 2 nM labeled DNA; 8% native PAGE in 1X TBE
Details: protein: recombinant; tags: C-terminal Myc-His (pBAD/Myc-HisB; in frame with downstream His-tag); label: 5'-32P on top strand; blunt

B1: SBM4-60Top duplex (dsDNA)
DNA 1: TGGTCTGGGTATGGAAGTGATGCACGAGCGCAACGCTCACAACTTCCCTCTCGACCTTGC
DNA 2: GCAAGGTCGAGAGGGAAGTTGTGAGCGTTGCGCTCGTGCATCACTTCCATACCCAGACCA
B1: binds.
